For this experiment, the target named is heat shock protein 70 (UniProt P0DMV8). Description: co-immunoprecipitation (anti-Flag beads) and western blot, band densitometry. The conditions noted are these: beads incubated with celastrol for 10 min, room temperature; n = 3; parent: est. 0.73; read off a plot. On the technique in general: Immunoblotting shows a protein as a band on a membrane.

This note sets out measurements from PMC4932452.

UniProt P0DMV8, sequence (P0DMV8 whole entry): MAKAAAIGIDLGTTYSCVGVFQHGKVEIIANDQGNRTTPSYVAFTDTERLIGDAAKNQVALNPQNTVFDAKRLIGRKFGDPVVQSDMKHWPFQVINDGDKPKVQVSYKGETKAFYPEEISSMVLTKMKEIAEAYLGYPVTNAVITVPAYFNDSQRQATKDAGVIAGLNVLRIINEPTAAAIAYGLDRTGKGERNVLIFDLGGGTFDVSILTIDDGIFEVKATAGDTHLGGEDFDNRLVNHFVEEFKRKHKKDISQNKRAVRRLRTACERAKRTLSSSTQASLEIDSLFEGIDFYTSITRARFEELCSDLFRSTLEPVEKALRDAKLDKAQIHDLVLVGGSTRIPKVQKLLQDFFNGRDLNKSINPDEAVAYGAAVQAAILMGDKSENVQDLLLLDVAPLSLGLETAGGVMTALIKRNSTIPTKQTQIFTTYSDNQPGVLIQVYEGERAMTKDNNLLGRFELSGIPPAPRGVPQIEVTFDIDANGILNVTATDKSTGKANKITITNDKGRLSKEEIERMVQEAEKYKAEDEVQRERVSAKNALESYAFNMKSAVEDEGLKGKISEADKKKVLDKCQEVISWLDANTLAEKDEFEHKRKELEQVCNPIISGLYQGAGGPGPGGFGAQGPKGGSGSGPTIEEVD

In the case of “wild-type human HSP90α (Flag-tagged, from pCMV-tag2a) (from UniProt P07900-1) Y493G; K546D”, the other: band density of cell-free experiment (ratios to HSP90α), DMSO group set as 1.0 came out at 1.3.
